For one substance, nonspecific background binding (percent) and mean channel fluorescence results are on record in patent US20030149244A1.

Assay [1] addresses FcεRI-bound human IgE (IgE loaded on CHO 3D10 cells expressing the FcεRI alpha chain) (human) (UniProt P01854). In words: FACS on IgE-loaded CHO 3D10 cells (FIG. 4); called nonspecific by the filing.
Assay [2] has the same target. The experiment in a line: FACS on IgE-loaded CHO 3D10 cells (FIG. 4), arithmetic/linear scale.

Sequence of FcεRI-bound human IgE (IgE loaded on CHO 3D10 cells expressing the FcεRI alpha chain) (human) (P01854 whole entry, chain 1 of 2): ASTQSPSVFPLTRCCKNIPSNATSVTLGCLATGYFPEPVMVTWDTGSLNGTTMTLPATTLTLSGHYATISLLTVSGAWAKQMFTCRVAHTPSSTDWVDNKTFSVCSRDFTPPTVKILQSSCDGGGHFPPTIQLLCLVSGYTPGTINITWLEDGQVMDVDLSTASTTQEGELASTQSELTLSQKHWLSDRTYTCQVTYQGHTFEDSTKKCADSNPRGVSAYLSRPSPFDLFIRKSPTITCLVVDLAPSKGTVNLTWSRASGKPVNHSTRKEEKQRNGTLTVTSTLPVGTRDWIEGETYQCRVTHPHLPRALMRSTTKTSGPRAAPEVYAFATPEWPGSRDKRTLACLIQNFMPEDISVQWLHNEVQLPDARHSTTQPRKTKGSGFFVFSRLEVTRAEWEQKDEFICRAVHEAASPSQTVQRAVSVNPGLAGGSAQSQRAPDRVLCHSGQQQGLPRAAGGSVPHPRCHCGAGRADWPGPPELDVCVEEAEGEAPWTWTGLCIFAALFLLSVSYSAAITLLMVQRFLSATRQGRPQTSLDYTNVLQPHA
Sequence of FcεRI-bound human IgE (IgE loaded on CHO 3D10 cells expressing the FcεRI alpha chain) (human) (P12319 26-257, chain 2 of 2, further chain): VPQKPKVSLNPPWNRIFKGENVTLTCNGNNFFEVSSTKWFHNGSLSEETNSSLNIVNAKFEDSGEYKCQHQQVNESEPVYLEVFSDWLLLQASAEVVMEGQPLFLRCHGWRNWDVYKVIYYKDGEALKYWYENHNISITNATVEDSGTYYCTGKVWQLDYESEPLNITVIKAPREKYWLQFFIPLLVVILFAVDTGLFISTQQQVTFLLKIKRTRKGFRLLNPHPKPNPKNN

As to MOPC21 (antibody), the nonspecific background binding (percent) in assay [1] was determined as 10%. The substance also gave a mean channel fluorescence at 0.1 µg/ml in assay [2] of 7.3.
